Assay: soluble on expression in E. coli; label from the status in PepcDB or PDB records
With “MMRNFGREFLEETSIFENKTCLIWRDREISFKEFHEYIGKWKNVLDEQKTKTTNPLRIALFCTNSPDILAIIVAGQLSGVTVIPLNPSYKKYEIDEYISKSIANFIIVSDDVDLDKFEEREVNLISELFTSNVTPSSTASTPENQGVIVFFSSGTTGPPKQFEYTQRILCSQIDQIKAIRSDPRFFSPSTDDICYGVLPFFHAGGLITILSMIFSGCTVLINERWNEHEFLANCQNYKVSVLFLVPPVLNFFANHPLVSSYDLSALKTIYVGAAASPPENFAKVAERLPELENLIQLYGTSECGVLLCSTGKGKASGKTVGWPFPFVELKINPENNEIFVKSATAMEEGFMETGDLGCLSFKTIELMIVGRSKEMMKIRGWQVNPNEVEDVIRKVEGVLDCAVYQNQEKLTAKIIGNPDSKADIFKIVKDNLASYKQLDDVIFVEELPRNPSGKLVRHMLH” the “soluble on expression in E. coli” value was “not soluble”. In the case of “MGSDKIHHHHHHMSRTTVLRSAESDLTLHGRDAMGTLMRTGTLTNFLKVAQQLDFDPQPLLRKLGLTKEMLADPECLIPGSASVTLLKESARLTQCPTFGLRVAERWQLSDLGVISVLLTHQSTLRDAVGTLIQYRHLLNEFLVIRMEDVGRKVIVREELVADEAGTSIQSTELVLGSLSRLCSTLMGATWHPLSVHFTHDPPPDLRLHRRVFGGKLEFASSFNGMICRAADMDFPNPIADPVMARHARRLLEGLPGAKEPSIVLEVRKAIYLLLPLGRATIEQVAQGLGMNVRMLQRQLESAGMVFSDMVNGVRRDLVIHYMDNKSYTLGRIAQSLGYSAYGSFVRWFAAQFGMTPTRWQSLRQQKEDGRSPIQIHC”, the “soluble on expression in E. coli” value is reported as “not soluble”. With “MQEVAMSSQEASKMLRTYNIAWWGNNYYDVNELGHISVCPDPDVPEARVDLAQLVKTREAQGQRLPALFCFPQILQHRLRSINAAFKRARESYGYNGDYFLVYPIKVNQHRRVIESLIHSGEPLGLEAGSKAELMAVLAHAGMTRSVIVCNGYKDREYIRLALIGEKMGHKVYLVIEKMSEIAIVLDEAERLNVVPRLGVRARLASQGSGKWQSSGGEKSKFGLAATQVLQLVETLREAGRLDSLQLLHFHLGSQMANIRDIATGVRESARFYVELHKLGVNIQCFDVGGGLGVDYEGTRSQSDCSVNYGLNEYANNIIWAIGDACEENGLPHPTVITESGRAVTAHHTVLVSNIIGVERNEYTVPTAPAEDAPRALQSMWETWQEMHEPGTRRSLREWLHDSQMDLHDIHIGYSSGIFSLQERAWAEQLYLSMCHEVQKQLDPQNRAHRPIIDELQERMADKMYVNFSLFQSMPDAWGIDQLFPVLPLEGLDQVPERRAVLLDITCDSDGAIDHYIDGDGIATTMPMPEYDPENPPMLGFFMVGAYQEILGNMHNLFGDTEAVDVFVFPDGSVEVELSDEGDTVADMLQYVQLDPKTLLTQFRDQVKKTDLDAELQQQFLEEFEAGLYGYTYLEDELEHHHHHH” the “soluble on expression in E. coli” value was “not soluble”. With “GMSISSKAKEILTQFTREVWSEGNIEASDKYIAPKYTVLHDPGDPWEGRELDVAGYKERVKTLRAAFPDQCFDIQGLFADGDAVVMTWLWTATHKEDIPGFPSTGKQIKMSGATVYYFDGNRLTGHWQITDRLGVYQQLRQAAAGA” the “soluble on expression in E. coli” value was “soluble”. With “PVMADTIKLRIVETTDIHTNLMDYDYYKDKASDQIGLTRAATLVKQARAEVENSVLVDNGDLIQGSPMGDYMAAKGIKAGEVHPVYKAMNPLGYDVGNIGNHEFNYGLEFLKETINDAAFPYINANVFDAKTGQHLFTPYVIKEHSFKDTDGEAHTIKVGYIGFVPPQIMVWDKKNLEGKVTAADIKQTAEKLIPEMKAKGADVIVAIPHSGISTDEYQAGAENSVYYLTQVKGIDAIAFGHSHAVFPGKDFANVPGADIDKGTINGVTAVMPGRWGSHVGVMDLTLEKQQGRWAVTSGQSEARPIFDKANKKALVEADATMVQALQHDHQGTRDFVNQ” the “soluble on expression in E. coli” value was “not soluble”. With “MSTQPSHPSSSNDLDSSIGTARIEVVSVPVKPRNKFSTTPVKRVEMKKSKESDSVDKALKVKSSLDCMKLEKPAPTTCEMKAA” the “soluble on expression in E. coli” value was “soluble”. With “MRKSRLSRYKQNKLIELFVAGVTARTATEPDSIVYTDCYRRYDVLDAGEFSHFRINHSTHFAERQNHINGIGNFWNRAKRHLRKFDGIPKEHFEPYLKECERRFNNSEIKVLVPFLEHHHHHH” the “soluble on expression in E. coli” value was “not soluble”. In the case of “GPFCGRARVHTDFTPSPYDTDSLKIKKGDIIDIICKTPMGMWTGMLNNKVGNFKFIYVDVISE”, the “soluble on expression in E. coli” value is reported as “soluble”. For “MGSDKIHHHHHHMTYKVLHVGAGGFGERWCDTFLPSNNSDGTIEVVGLVDIDARALEIGRKHLGLKAKQCFTSAAQAFKAVDADFCTIVIPPALHEGIVDLALERGMHILSEKPIAATMEASVRIADKVRVAGRKMAVTMSHRFDQDKSTLRALVSDEALGRVNTVSCRFAGDYRAYDSWGRFRHEMIHPMLIEGAVHHLDIMADLAGAPCTSIYARSWKPEWAEYKGETDVMVLMDFANGAHGVYEGSSAQATGLNDWTFEYVRVEAASGTAILDHREVEVFHRDPKRIYQKNRHGKGQQVSLLGGKKWKNSLLIEQFCHWLDGGPPMATNVEDNLQSVALIFSAIESARLGQPVKVQEFLQSFRKSASIETQ”, the “soluble on expression in E. coli” value was “not soluble”. For “TDKEEFALYCEAKNDKVRKRLGIKGGFYWTTAKKLSVAISRCITAMDDNDYDEDDFKKPVRVNLPVVDDLPPEGVFDTEFCNRYEKGGKDGITMTFIGPSPSVQDKPASTDNTNINGEAMTEIEESMLLPVSGQELPIRWLAQHGSEKPVTHVSRDELQALHIARAEELPAVTALAISHKTSLLDSL”, the “soluble on expression in E. coli” value was “not soluble”. In the case of “MTIATSVAGSSENFAELFNESLSHKEMRVGEVITAEIIRVDYNFVVVNAGLKSESYIPIEEFKNDRGEIEAREGDFVSVAIEALENGFGETRLSRDKAKRLNAWYELEEAMEKGKIVTGMVNGKVKGGLTATINGIRAFLPGSLVDIRPVKDMTPYENKEMEFKVIKLDRKRNNVVVSRRAVLEETQGADRDELLASLQDGAVVQGIVKNITDYGAFVDLGGIDGLLHITDLAWRRVKHPTEVINVGDEVTAKVLKFDQEKNRVSLGLKQLTEDPWIGLSRRYPQGTRIFGKVTNMTDYGAFVEIEQGIEGLVHVSEMDWTNKNVYPSKIVQLGDEVEVMILEIDEDRRRISLGMKQCRPNPWEEFSLSHEKGDKVTGQIKSITDFGLFIGLPGNIDGLVHLSDLSWNQPGEKAISEFKKGDEVEAVVLSIDVEKERISLGIKQLEGDPFNIYVASHDKNSIVKGTVKSVDAKGAVIALTDEVEGYLRASEFSRDKIEDIRSRVNEGDEIEAMIINIDRKNRSISLSVKARIQDEEDKAVKSLASVSNPASAGTTNLGALLKAKIDSKSSEELEHHHHHH”, the “soluble on expression in E. coli” value is reported as “soluble”. In the case of “MGSQFLLSVREFMQTRYYAKKTIEAYLHWITRYIHFHNKKHPSLMGDKEVEEFLTYLAVQGKVATKTQSLALNSLSFLYKEILKTPLSLEIRFQRSQLERKLPVVLTRDEIRRLLEIVDPKHQLPIKLLYGSGLRLMECMRLRVQDIDFDYGAIRIWQGKGGKNRTVTLAKELYPHLKEQIALAKRYYDRDLHQKNYGGVWLPTALKEKYPNAPYEFRWHYLFPSFQLSLDPESDVMRRHHMNETVLQKAVRRSAQEAGIEKTVTCHTLRHSFATHLLEVGADIRTVQEQLGHTDVKTTQIYTHVLDRGASGVLSPLSRL”, the “soluble on expression in E. coli” value is reported as “soluble”. In the case of “MSLDVTLTQPSIPDQSEDRRVRTSGSLAGHLPYGMADTLGKHEHLSTVDLVVPRFNASETEMLLGLFDGQALSSGGSKIAKYLHENFGHIFALELKALKTRLNETPVDALRRAFLALNKDLVTIAIQQSEERPIQTHRNSGQPIILTKEDLNSGGVATVVYLQSTELYVANVGDAQAMVIQTDGTHKMLTRKHDPAEPTERSRIREAGGWVSRNGRLNDLLQVSRAFGYVDLMPAVQAAPYVSNMTIREQDDIILIATGELWEYLSPGLVTDVARAERQDLMRAAQKLRDLAIAYGASGKIMVMMISVADEGHHHHHH”, the “soluble on expression in E. coli” value is reported as “soluble”. For “MSLTNDERILSWNETPSKPRYTPPPGAIDAHCHVFGPMAQFPFSPKAKYLPRDAGPDMLFALRDHLGFARNVIVQASCHGTDNAATLDAIARAQGKARGIAVVDPAIDEAELAALHEGGMRGIRFNFLKRLVDDAPKDKFLEVAGRLPAGWHVVIYFEADILEELRPFMDAIPVPIVIDHMGRPDVRQGPDGADMKAFRRLLDSREDIWFKATCPDRLDPAGPPWDDFARSVAPLVADYADRVIWGTDWPHPNMQDAIPDDGLVVDMIPRIAPTPELQHKMLVTNPMRLYWSEEMEGHHHHHH”, the “soluble on expression in E. coli” value was “soluble”. For “PLRLALSKLLVKANQPSAALSPLVHLPPMPSRDYLAMRAALAQKQKQNDIALESYQLLTQREPDNARWWLGLAIQQERALTFTAAINSYNEALGKVGISNQSQAFIRDRLTILKQLESAQ”, the “soluble on expression in E. coli” value was “not soluble”. With “MSLTNLLIRNVRPSADAALDILIEGDRIARIGPSLDAPAGCAIEDGAGALALPGLVEGHTHLDKTHWGMPWYRNQVGPRLVDRIENERHYRATSGHDAGAASLALARAFLAAGTTRIRTHVDIDTEAGLRHLHGVLATRETLRGEVDIQIVAFPQSGVLKRPGTDVLLSDALAAGADLLGGLDPCAIEGDPVEAVDVLFAIAERHGRGLDLHLHERGSMGAYSLDLILQRTATHGMQGKVTISHGFCLGDIGERERDALLARMAELGVGLVTTAPAAVPVPPVAACRAAGVTVIGGNDGVRDTWTPYGSPDMLERAMLIGMRNDFRRDDALEVALDCVTHGAARGCGFGDYGLQPGSRADVVLVDALTFAEAVVARPVRRLVVSSGKIVARNGALVEGHHHHHH” the “soluble on expression in E. coli” value was “soluble”. For “GSPGISGGGGGILDSMVEKEEPKEEEKLGKLQYSLDYDFQNNQLLVGIIQAAELPALDMGGTSDPYVKVFLLPDKKKKFETKVHRKTLNPVFNEQFTFKVPYSELGGKTLVMAVYDFDRFSKHDIIGEFKVPMNTVDFGHVTEEWRDLQSAE”, the “soluble on expression in E. coli” value was “soluble”. With “MVLLHHQPLGSHHATTSGGSLLERADLSHPIPENARKLAQLVEYDESRVELGTHSVFVREARPPGAHYSKATVIFLHGQSFSSSTWTENNLLRTFAALGYRAIAIDLPGSGQTRGAAIPQAEKPNFLMDFIETLGLKQVMIVCASMAAQYVLPLMTSTRHLSCVVLVAPSNTHEVVSPSSYTVPTLVVWGERDTSLGPTAAANLKNLPQVKLQKIPDAGHACYLHNPKCFENLCVNFFDLIRSYHH” the “soluble on expression in E. coli” value was “not soluble”. For “GPGSMKTIALLSGGKDSILAMLMAHRYGHEPVVIANMAPVLESDGALRGAAENGTHGHDIDSYMYQTVGFEAVDSIAACLGLPLRRGRVRRGLAKDQSLLYSEQPPEEDEVESLYSLIRTVKEEFPEVQGLTSGAILSNYQRNRVELICDRLGLESLAYLWMRQPDEILDMADALHVQAILVKTASIGLMPRCLIGKTLEEARPTLEKMAELYHSHLAGEGGEYETIVLNCPLFHAEHLTVTALEVVMQDDNDISPSGHGLLTVARVPKSVEQQAKEAEVLARVRAGAVTFPSDTMPLLRSCAVYPLALSATASARGPGETIDLPLPATIRSALFLGSGTAAARDGIAHHTYASPLEAGASAAEALNACLTVLQTWAAERSLTPFYYHFSLPEPSWEVSCRAAYAGKVSHVCPPGLLVTVRDSRSRSAAAVEAEVLAAPTAAIQQHVLHAQSRSCWALGEPGPHSQARRVGLATGTSRLFVSATPGRVPATREVATASDLPAVCQQCITALAAAQHGEETSAALTDIAAQFVVAMSNCERYLTLFGCSFGDVDRAAVVATDDVPVSLLPALWQWTTQNTGALPFERVCQVVVVGALSGTEKIRVSMECVEVRGGGG”, the “soluble on expression in E. coli” value was “not soluble”.

Reference: the DeepSol protein solubility set
